{"source": "patent US20060105442", "about": "“Promoters and proteins from Clostridium thermocellum and uses thereof” (published 2006)", "binders": {"B1": {"name": "18 bp GlyR3 binding site (dsDNA)", "DNA 1": "AATGAACGCGCGTACATT", "DNA 2": "AATGTACGCGCGTTCATT"}}, "biological_target": "T1, rGlyR3 (CelR3) (Clostridium thermocellum)", "T1 chain": "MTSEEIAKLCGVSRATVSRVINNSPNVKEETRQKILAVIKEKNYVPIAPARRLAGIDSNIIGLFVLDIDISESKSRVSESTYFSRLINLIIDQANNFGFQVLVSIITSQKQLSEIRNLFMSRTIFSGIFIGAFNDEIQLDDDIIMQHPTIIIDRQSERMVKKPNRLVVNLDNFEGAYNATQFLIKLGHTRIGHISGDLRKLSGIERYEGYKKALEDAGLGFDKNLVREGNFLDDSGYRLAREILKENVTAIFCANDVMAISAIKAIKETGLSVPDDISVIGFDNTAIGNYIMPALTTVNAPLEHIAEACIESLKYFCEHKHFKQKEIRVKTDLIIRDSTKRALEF", "assay": "EMSA; dose dependent; inhibited by laminaribiose"}
{"binder": "B1", "values": [{"measurement": "binding result", "result": "binds"}]}
